Source: US20230101046A1, “ANAPLASTIC LYMPHOMA KINASE CHIMERIC ANTIGEN RECEPTORS AND METHODS OF USE” (The Children's Medical Center Corporation, priority 2020, published 2023)

Columns and labels:
ALK = ALK (Homo sapiens, UniProt Q9UM73); experiment: ALK phosphorylation / ALK signaling activity of ALK antibodies; format: cell-based
Description: (§1) Seven (7) ALK-specific antibodies (ALK Antibodies #1-#7) directed against the extracellular domain of human ALK receptor were evaluated for use in CAR-based immunotherapy.

Mouse-ALK = Mouse-ALK (Mus musculus, UniProt P97793); experiment: Mouse-ALK binding of ALK antibodies
Description: as §1

Mouse-ALK, sequence (P97793 19-1621): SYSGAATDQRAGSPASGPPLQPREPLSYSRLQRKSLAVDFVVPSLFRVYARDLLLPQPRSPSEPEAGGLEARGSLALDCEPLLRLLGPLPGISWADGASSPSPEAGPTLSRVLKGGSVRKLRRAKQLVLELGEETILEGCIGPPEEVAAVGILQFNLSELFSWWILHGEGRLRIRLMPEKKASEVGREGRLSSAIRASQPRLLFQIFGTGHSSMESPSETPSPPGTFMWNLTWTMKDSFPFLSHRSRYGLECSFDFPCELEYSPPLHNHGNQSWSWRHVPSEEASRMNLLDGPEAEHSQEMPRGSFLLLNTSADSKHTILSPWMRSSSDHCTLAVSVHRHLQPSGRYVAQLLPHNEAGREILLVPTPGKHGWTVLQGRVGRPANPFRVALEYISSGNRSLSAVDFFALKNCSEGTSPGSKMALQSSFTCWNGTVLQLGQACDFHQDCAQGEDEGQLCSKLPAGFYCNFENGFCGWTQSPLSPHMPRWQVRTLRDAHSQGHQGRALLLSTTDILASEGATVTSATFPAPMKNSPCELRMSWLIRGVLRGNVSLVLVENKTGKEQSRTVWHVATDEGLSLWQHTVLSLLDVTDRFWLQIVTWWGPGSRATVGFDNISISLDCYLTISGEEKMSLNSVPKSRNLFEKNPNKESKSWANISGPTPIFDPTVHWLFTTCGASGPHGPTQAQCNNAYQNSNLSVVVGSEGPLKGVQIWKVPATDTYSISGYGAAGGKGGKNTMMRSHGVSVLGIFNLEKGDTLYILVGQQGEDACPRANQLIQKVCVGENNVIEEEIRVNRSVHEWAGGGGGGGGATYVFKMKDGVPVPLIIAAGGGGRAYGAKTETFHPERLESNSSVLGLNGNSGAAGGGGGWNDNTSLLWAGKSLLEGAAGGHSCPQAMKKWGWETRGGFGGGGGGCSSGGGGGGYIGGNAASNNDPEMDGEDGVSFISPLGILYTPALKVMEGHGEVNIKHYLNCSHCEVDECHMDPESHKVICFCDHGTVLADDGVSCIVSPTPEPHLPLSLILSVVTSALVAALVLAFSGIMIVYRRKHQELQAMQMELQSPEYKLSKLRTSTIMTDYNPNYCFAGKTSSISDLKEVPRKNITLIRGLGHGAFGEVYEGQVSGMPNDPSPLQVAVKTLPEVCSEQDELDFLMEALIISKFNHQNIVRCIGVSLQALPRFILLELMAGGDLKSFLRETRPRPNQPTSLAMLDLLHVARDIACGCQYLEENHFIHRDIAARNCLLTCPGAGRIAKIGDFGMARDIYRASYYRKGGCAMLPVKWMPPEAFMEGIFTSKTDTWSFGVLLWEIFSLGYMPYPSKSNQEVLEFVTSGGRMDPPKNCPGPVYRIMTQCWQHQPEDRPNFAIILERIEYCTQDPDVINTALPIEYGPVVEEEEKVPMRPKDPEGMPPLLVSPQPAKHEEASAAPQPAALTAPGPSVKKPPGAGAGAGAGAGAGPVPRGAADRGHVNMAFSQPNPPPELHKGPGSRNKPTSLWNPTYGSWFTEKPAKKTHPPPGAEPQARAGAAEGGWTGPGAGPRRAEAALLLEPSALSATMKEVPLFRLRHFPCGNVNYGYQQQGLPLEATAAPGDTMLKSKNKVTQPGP
ALK, sequence (Q9UM73 19-1620): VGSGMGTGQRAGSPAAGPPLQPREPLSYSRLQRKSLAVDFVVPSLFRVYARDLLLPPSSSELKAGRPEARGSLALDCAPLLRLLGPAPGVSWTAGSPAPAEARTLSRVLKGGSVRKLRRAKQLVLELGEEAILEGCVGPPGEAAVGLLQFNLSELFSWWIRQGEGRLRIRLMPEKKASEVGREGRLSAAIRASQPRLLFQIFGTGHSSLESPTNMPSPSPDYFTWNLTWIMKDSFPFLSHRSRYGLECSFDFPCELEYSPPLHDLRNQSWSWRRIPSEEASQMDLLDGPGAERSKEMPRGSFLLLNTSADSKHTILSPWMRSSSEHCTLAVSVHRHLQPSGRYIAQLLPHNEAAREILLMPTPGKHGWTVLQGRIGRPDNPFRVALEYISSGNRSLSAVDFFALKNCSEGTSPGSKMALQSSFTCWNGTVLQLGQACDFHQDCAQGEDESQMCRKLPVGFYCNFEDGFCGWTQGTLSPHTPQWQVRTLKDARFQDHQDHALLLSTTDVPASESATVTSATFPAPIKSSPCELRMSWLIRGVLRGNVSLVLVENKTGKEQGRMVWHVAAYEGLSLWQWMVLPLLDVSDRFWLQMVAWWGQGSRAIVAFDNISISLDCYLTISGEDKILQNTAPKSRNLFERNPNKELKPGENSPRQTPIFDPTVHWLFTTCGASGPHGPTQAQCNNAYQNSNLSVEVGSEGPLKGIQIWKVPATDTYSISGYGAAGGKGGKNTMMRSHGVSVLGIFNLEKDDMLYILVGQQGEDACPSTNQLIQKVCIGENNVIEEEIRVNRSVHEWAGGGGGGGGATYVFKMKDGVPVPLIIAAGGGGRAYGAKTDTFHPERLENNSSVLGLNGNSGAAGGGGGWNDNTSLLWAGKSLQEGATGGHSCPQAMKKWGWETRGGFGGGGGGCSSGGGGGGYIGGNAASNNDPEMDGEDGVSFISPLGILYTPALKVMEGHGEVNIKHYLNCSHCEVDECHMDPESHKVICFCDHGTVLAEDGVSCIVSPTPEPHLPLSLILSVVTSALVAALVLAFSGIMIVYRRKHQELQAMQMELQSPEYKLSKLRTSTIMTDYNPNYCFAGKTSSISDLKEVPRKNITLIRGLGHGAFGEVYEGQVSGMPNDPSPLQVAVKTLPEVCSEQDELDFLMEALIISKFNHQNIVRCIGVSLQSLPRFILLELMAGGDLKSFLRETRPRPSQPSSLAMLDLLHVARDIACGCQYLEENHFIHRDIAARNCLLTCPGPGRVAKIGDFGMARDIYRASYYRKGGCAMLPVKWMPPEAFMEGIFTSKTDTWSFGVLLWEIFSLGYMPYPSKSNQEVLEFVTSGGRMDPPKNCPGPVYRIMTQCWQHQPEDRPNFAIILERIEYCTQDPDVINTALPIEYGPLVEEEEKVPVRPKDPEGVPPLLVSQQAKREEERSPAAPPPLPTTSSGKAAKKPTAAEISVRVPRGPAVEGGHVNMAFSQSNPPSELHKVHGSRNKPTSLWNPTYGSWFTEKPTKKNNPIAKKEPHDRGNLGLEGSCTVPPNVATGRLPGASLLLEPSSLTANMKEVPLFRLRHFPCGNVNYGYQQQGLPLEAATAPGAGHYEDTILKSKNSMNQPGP

Row | Molecule | activity on ALK signaling (ALK) | recognition of human and murine ALK (Mouse-ALK)
1 | ALK Antibody 7: mouse hybridoma anti-ALK antibody against extracellular domain of human ALK receptor; VL/VH sequences in Tables 1 and 2 (antibody, V domains shown) VH: QVQLQQSGAELAKPGASVKLSCKASGYTFTSYWMHWVKQRPGQGLEWIGYINPSSGYTKYNQKFKDKATLTADKSSSTAYMQLSSLTFEDSAVYYCARDYYGSSSWFAYWGQGTLVTVSA VL: DIVMTQSQKFMSTSVGDRVSVTCKASQNVGTNVAWYQQKPGHSPKALIYSASYRYSGVPDRFTGSGSGTDFTLTISNVQSEDLAEYFCQRYNSYPYMFTFGGGTKLEIKR | agonistic of ALK signaling | recognize both the human and murine ALK
2 | ALK Antibody 3: mouse hybridoma anti-ALK antibody against extracellular domain of human ALK receptor; VL/VH sequences in Tables 1 and 2 (antibody, V domains shown) VH: QVQLQQSGAELAKPGASVKLSCKASGYTFTNYWMHWVKQRPGQGLEWIGYINPSSGYTKYNQKFKDKATLTADKSSSTAYMQLSSLTYEDSAVYYCARDYYGSSSWFAYWGQGTLVTVSA VL: DIVMTQSQRFMSTSVGDRVSVTCKASQNVGTNVAWYQQKPGQSPKALIYSASYRYSGVPDRFTGSGSGTDFTLTVSNVQSEDLAEYFCQQYNSYPYMYTFGGGTKLEIKR | inhibited ALK signaling | –
3 | ALK Antibody 5: mouse hybridoma anti-ALK antibody against extracellular domain of human ALK receptor; VL/VH sequences in Tables 1 and 2 (antibody, V domains shown) VH: QVQLQQSGAELAKPGASVKLSCKASGYTFTSYWMHWVKQRPGQGLEWIGYIKPSSGYTKYNQKFKDKATLTADKSSSTAYMQLSSLTYEDSAVYYCARDYYGSSSWFAYWGQGTLVTVSA VL: DIVMTQSQRFMSTSVGDRVSVTCKASQNVGTNVAWYQQKPGQSPKALIYSASYRYSGVPDRFTGSGSGTDFTLTISNVQSEDLAEYFCQQYNSYPYMYTFGGGTKLEIKR | inhibited ALK signaling | recognize both the human and murine ALK
4 | ALK Antibody 6: mouse hybridoma anti-ALK antibody against extracellular domain of human ALK receptor; VL/VH sequences in Tables 1 and 2 (antibody, V domains shown) VH: DVKLVESGEGLVKPGGSLKLSCAASGFTFSSYAMSWVRQTPEKRLEWVTYISSGGDYIYYADTVKGRFTISRDNARNTLYLQMSSLKSEDTAMYYCTRERIWLRRFFDVWGTGTTVTVSS VL: DIVMTQSQKFMSTSVGDRVSITCKASQNVGTAVAWYQLKPGQSPKLLIYSASNRFTGVPDRFTGSGSGTDFTLTISNMQSEDLADYFCQQYSSYPLTFGSGTKLEIKR | inhibited ALK signaling | recognize both the human and murine ALK
5 | ALK Antibody 1: mouse hybridoma anti-ALK antibody against extracellular domain of human ALK receptor; VL/VH sequences in Tables 1 and 2 (antibody, V domains shown) VH: QVQLQQSGAELVKPGASVKISCKASGYAFSSYWMNWVKQRPGKGLEWIGQIYPGDGDTNYNGKFKGKATLTADKSSSTAYMQLSSLTSEDSAVYFCASYYYGSKAYWGQGTLVTVSA VL: DIQMTQSPASLAASVGETVTITCRASENIYYSLAWYQQKQGKSPQLLIYNANSLEDGVPSRFSGSGSGTQYSMKINSMQPEDTATYFCKQAYDVPFTFGSGTKLEIKR | no effect on ALK signaling | –
